Results on 1 substance are retold here after US20060018911A1.

Experiment [1] has as its target purified IgM antibody (38C13). Put plainly: antibody microarray, printed S1C5, goat anti-mouse IgM HRP chemiluminescence.
Experiment [2] concerns the target 38C13 IgM in 38C13 cell extract. As to the kind of experiment: antibody microarray, printed S1C5, cell extract, goat anti-mouse IgM HRP chemiluminescence.

Take “S1C5 anti-idiotype monoclonal antibody (anti-IgM antibody)”: in experiment [1], the lowest IgM concentration giving signal is 0.1 µg/mL and the lowest spotted antibody concentration giving signal was 25 µg/mL. In experiment [2], this substance displayed a highest extract dilution giving signal (fold dilution (1:x)) of 2000 and a lowest printed antibody concentration giving signal of 50 µg/mL.
